According to publication PMC9316223, “Can Modern Molecular Modeling Methods Help Find the Area of Potential Vulnerability of Flaviviruses?” (International Journal of Molecular Sciences, 2022):

Assays:
Settings in all cases: both partners purified
[1] = target: T1, DEF1, fragment of DENV E protein containing 1-184 aa (Dengue virus 3, strain Sri …, UniProt Q6YMS4); assay: far-Western, overlay or dot blot; dot blot: recombinant proteins (1 µL at 1.5 mg/mL) adsorbed onto nitrocellulose; 10H10 mAb 2 μg/mL in PBS, 0.1% Tween-20, 1% BSA for 10 min; detected with goat anti-mouse IgG conjugated with alkaline phosphatase
T1 construct: envelope protein E of dengue virus 3 strain Sri Lanka/1266/2000 (genome AY099336.1), residues 1-184; numbers count on: the E protein (cut product of the polyprotein); Cloned into pET32 (BamHI/XhoI); the vector may add further linker and tag residues; source: E. coli BL21(DE3), purified (lysis buffer with 8 M urea, Ni-IMAC Sepharose)

[2] = target: T2, ZEF1, fragment of ZIKV E protein containing 1-187 aa (Zika virus, strain MR-766 (KX377335.1), UniProt A0A192GPS6); assay: as above
T2 construct: envelope protein E of Zika virus strain MR-766 (genome KX377335.1), residues 1-187; numbers count on: the E protein (cut product of the polyprotein); Cloned into pET32 (NcoI/XhoI); the vector may add further linker and tag residues; The UniProt entry recalled is of strain Mr 766 from another GenBank record and may differ in a few residues from KX377335.1; source: E. coli BL21(DE3), purified …

[3] = target: T3, WEF1, fragment of WNV E protein containing 1-186 aa (West Nile virus, strain 956 …, UniProt P06935); assay: as above
T3 construct: envelope protein E of West Nile virus strain 956 (genome NC_001563.2), residues 1-186; numbers count on: the E protein (cut product of the polyprotein); Cloned into pET32 (BamHI/XhoI); the vector may add further linker and tag residues between thioredoxin and the insert; source: E. coli BL21(DE3), purified (lysis buffer with 8 M urea, Ni-IMAC Sepharose)

[4] = target: T4, TEF1, fragment of TBEV E protein containing 1-187 aa (Tick-borne encephalitis virus, strain …, UniProt Q01299); assay: far-Western, overlay or dot blot
T4 construct: source: E. coli BL21(DE3), purified (lysis buffer with 8 M urea, Ni-IMAC Sepharose)

Measured: binding result

T3 sequence (P06935 whole entry, looked up, the tested form may be a part): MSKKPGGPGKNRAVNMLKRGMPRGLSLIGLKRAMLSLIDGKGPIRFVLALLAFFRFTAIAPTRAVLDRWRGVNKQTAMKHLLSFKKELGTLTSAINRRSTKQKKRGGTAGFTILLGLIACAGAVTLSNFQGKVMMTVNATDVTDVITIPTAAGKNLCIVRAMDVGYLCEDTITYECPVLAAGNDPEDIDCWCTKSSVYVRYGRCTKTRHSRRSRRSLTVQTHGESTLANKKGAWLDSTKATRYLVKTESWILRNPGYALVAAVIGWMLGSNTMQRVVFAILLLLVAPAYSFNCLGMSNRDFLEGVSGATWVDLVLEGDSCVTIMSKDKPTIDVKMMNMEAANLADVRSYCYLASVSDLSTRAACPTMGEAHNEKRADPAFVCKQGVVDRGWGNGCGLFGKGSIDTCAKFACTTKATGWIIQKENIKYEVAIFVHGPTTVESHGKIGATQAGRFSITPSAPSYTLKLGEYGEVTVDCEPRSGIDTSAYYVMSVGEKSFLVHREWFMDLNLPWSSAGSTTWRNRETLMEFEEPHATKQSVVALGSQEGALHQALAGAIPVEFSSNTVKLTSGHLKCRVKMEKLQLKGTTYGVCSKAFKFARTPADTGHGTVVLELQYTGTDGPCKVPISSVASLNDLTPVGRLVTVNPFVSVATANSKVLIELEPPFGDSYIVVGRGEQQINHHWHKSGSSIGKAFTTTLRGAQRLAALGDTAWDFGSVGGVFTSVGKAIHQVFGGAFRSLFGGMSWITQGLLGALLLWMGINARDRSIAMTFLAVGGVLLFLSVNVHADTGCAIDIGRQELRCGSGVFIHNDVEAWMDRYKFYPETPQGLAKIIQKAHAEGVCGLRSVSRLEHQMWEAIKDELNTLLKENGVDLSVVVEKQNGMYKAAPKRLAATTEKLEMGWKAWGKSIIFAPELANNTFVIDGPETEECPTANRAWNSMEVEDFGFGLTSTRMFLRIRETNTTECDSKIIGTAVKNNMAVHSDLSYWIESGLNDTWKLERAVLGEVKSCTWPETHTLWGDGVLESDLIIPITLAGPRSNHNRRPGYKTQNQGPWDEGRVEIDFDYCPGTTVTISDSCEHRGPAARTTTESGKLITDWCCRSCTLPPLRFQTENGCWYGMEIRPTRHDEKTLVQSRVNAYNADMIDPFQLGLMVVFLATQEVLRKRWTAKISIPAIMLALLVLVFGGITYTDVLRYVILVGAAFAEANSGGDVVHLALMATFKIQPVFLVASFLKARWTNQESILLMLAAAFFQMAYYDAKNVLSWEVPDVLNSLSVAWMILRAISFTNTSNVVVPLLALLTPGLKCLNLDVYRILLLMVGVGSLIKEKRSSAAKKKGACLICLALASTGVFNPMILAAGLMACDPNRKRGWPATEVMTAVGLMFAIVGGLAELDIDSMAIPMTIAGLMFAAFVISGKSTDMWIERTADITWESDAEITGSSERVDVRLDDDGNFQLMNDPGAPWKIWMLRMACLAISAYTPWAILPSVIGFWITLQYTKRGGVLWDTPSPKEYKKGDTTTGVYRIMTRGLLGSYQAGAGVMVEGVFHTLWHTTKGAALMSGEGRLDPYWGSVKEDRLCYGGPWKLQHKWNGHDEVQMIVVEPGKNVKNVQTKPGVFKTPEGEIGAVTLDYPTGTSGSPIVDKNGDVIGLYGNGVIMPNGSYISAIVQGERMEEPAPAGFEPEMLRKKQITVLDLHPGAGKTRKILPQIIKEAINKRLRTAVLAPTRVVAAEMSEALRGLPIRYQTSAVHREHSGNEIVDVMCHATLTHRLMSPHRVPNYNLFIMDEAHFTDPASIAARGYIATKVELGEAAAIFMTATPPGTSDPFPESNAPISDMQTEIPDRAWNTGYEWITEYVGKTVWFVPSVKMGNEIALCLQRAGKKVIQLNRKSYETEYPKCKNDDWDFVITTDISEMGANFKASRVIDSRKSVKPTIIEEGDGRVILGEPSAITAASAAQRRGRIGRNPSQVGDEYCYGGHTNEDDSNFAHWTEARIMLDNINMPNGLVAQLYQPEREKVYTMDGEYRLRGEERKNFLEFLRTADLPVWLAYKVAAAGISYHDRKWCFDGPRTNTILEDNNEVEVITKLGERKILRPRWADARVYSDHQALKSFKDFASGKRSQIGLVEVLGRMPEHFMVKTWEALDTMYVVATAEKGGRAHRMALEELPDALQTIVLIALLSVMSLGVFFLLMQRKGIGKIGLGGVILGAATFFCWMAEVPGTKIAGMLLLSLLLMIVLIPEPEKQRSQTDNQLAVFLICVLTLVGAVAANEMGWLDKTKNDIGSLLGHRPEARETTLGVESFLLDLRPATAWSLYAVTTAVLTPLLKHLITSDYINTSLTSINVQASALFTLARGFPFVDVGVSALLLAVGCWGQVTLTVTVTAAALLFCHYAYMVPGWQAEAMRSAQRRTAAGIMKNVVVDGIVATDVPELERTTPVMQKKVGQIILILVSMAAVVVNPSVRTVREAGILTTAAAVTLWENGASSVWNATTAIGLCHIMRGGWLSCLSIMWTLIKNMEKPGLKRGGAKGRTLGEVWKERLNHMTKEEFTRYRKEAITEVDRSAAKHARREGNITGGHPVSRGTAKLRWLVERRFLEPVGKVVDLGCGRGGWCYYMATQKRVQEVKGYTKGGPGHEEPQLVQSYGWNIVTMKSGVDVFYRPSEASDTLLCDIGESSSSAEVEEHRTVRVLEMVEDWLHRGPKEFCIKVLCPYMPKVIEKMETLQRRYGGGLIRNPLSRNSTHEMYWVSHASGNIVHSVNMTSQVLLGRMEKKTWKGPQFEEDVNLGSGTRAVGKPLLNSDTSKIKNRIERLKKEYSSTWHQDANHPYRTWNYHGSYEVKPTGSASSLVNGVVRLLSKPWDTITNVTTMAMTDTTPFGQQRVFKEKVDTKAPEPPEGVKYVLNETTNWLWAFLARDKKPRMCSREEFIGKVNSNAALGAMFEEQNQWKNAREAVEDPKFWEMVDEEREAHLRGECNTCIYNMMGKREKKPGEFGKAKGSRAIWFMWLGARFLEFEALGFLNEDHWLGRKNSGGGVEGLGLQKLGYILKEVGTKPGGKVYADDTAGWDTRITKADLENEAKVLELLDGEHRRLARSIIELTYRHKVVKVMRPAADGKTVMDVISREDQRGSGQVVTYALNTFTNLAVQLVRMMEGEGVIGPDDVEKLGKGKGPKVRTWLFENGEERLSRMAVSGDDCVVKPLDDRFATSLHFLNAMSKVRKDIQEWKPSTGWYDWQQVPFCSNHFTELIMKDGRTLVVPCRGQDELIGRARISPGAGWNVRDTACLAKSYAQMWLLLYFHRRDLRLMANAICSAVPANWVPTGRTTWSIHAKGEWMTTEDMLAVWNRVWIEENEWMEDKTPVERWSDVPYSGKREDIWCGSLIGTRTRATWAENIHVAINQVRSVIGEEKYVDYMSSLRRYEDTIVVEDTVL

B1: 10H10 monoclonal antibody (antibody, V domains shown)
VH: VKLEESGGGLVKPGGSLKLSCAASGFSFSDYYMYWVRQTPEKRLEWVATISDGGSHTSYRDSVKGRFTISRDNGKNNLYLQMSSLKSEDTAMYYCVRGAYWGQGTLVTVSS
VL: not shown
notes: also called 10H10 mAb; 10H10 antibody
binds: [1] | [2] | [3] | [4]
